Experimental data taken from patent US20100048868A1.

Target: recombinant human HER2 extracellular domain (human) (UniProt P04626)
Assay: SPR (Biacore 2000), HER2-ECD immobilised, 1:1 model, 25 C

His6-(ZHER2 A)2 (designed binder) was tested, and the Kd was 3 nM and the koff was 0.00076 s⁻¹.
